Test results from the DeepSol protein solubility set.

Assay: soluble on expression in E. coli; label from the status in PepcDB or PDB records

| Sequence | soluble on expression in E. coli |
| --- | --- |
| MAHHHHHHMAKDNKGKVKKAAGEETVKYYRVKGKKKILIPVKAKKTIAKKYYGRKLASKKKYIVQGKMRKSIEVGKVAIILSGKHMGKRCIITKVLTSGLLAVVGPYEVNGVPLKRVNPRYVVVTSTNIFKFENMAGLKDEFVKLAEQIEDNSFVKSLEIKKKQKKLLSKKNEGLFMNDVITKIKELMKEDPKMQQLQKIQKEIGTLLKDEIAKNKIFAEYLKSKFTLRNDMALHKMKF | not soluble |
| MGSDKIHHHHHHVDRGCQWRGDDSLRGQRHERRGQLRLMGAAEYASQVRTLPKLGLGVGLRNEHFNHILSERPNVDWFEAISENFMDSGGRPGWVIRQIAEHYPIVLHGVSLSIGSADPLNEGYLARLKLLADDVQAKWVSDHLCWTGVLSINSHDLLPLPLNEETLGHVTSRVHHVQEVLGRPLILENPSTYASFQTSDIPEPEFLRALSDATGCGLLLDVNNVYVSCFNDGTDPLEYLEKIPFEKVIQMHLAGHTNCGEFLLDTHDQPVTRGVWELFRLAWQRTGGAATLLEWDGDVPAFEDLHAEVLKAREFMAGEVEALHLYQGAAAPGRARVSNPVDHIVSPVRGHSRLDA | not soluble |
| MSLKEKSVINAVKAEILVEKLVDKLMKEQELNPSEDILRAYYEFYKREFYRPSSVKLLGIYVKSKKEAERISQILKQGEVPSTEDVKVSKPLWYSIPTLPKYIRRNFRTLSVGEVSKPIKINDGYLVFKILDKKPAGFIPFERAKSLVKKMYLKEKRKEVFKKWLSEVLKKYQVRSTGKTCNTFISRFFFRKVNRQGEGHHHHHH | not soluble |
| MNIDTREITLEPADNARLLSLCGPFDDNIKQLERRLGIEINRRDNHFKLTGRPICVTAAADILRSLYVDTAPMRGQIQDIEPEQIHLAIKEARVLEQSAESVPEYGKAVNIKTKRGVIKPRTPNQAQYIANILDHDITFGVGPAGTGKTYLAVAAAVDALERQEIRRILLTRPAVEAGEKLGFLPGDLSQKVDPYLRPLYDALFEMLGFEKVEKLIERNVIEVAPLAYMRGRTLNDAFIILDESQNTTIEQMKMFLTRIGFNSKAVITGDVTQIDLPRNTKSGLRHAIEVLADVEEISFNFFHSEDVVRHPVVARIVNAYEAWEEAEQKRKAALAAERKREEQEQK | soluble |
| MSDVKGKSTSGRGLTPKQEKFCQLYIELGNASEAYRQSYDCSKMTTEVINVKASELLNKNGKITVRVEELRQAHQQRHNLTLDNIIADLQEYRDICMGRKPLTITTVVKNAQEGTAQSVNTECFVFEPTGANKALELLGKHLGMFTNKVDVTTDGKPLPTVINVTFSDEPA | not soluble |
| MGSSHHHHHHSSASMTGGQQMGRTLYDDDDKDRWGSELETGRQKARGAATRARQKQRASLETMDKAVQRFRLQNPDLDSEALLTLPLLQLVQKLQSGELSPEAVFFTYLGKAWEVNKGTNCVTSYLTDCETQLSQAPRQGLLYGVPVSLKECFSYKGHDSTLGLSLNEGMPSESDCVVVQVLKLQGAVPFVHTNVPQSMFSYDCSNPLFGQTMNPWKSSKSPGGSSGGEGALIGSGGSPLGLGTDIGGSIRFPSAFCGICGLKPTGNRLSKSGLKGCVYGQTAVQLSLGPMARDVESLALCLKALLCEHLFTLDPTVPPLPFREEVYRSSRPLRVGYYETDNYTMPSPAMRRALIETKQRLEAAGHTLIPFLPNNIPYALEVLSTGGLFSDGGRSFLQNFKGDFVDPCLGDLILILRLPSWFKRLLSLLLKPLFPRLAAFLNNMRPRSAEKLWKLQHEIEMYRQSVIAQWKAMNLDVLLTPMLGPALDLNTPGRATGAVSYTMLYNCLDFPAGVVPVTTVTAEDDAQMELYKGYFGDIWDIILKKAMKNSVGLPVAVQCVALPWQEELCLRFMREVEQLMTPQKQPS | soluble |
| ICMNVENEVTHTQLQFNHTDKYCGNIKNLISCKLYQHALTLIDSFRHDKSI | not soluble |
| MLSAWFSGKYSVLKDENGYVFLDRDGDRFRHILNYLRCGTVHIGEDIRLLGEILEEAEYFGLQSLAQQLKEALLQCRVKQEEKESSVCGRMNNEDNLFHPMFEPLDGFSSSQTSQGEPLLTLLPSSQEFRLDEDF | soluble |
| MSLITLPKISLIGSNIAKEGLEFVFAGPLAACSDCRVKNVCFNLEQGHRYRVTKVREQVNPCIIFNGDKVNTVEVEELEDYVNVQESKRIQEGAIITLKSMNCDYITCPNIEKCNLYYFKPDSKVMVKSIGKEIKCPKGYKMKQVAITYKEGHHHHHH | not soluble |
| MGSDKIHHHHHHMSEDQKRILEQQLWNIANTLRGKMNADEFRDYILGFIFYKYLSEKMEIFANDILKQDKISFREITPKLKQGKEYLEAIREEALEKLGYFLKPEELFSEVAKRGRGSNDEGENFDEAKTNFILEDLQKILINIQLSTMGTDSEEDFDNLFEDMDLNSTKLGKTPDARNAIIAKVLTHLDKIDFKLEDLESDVLGDSYEYLIGQFASGAGKKAGEFYTPQQVSKILAKIVTTEKHKLKSVYDPTCGSGSLLLRVAREVKDVAKFYGQEMNRTTYNLARMNMILHGVHYRKFDIKQEDTLEHPQHMGQQFEAIVANPPFSAQWSANPLHLSDDRFSQYGKLAPASKADYAFVQHMVHHLAENGIMALVLPHGVLFRGGAEQHIRKYLIEQKNYLDAVIGLPGNIFYGTSIPTCILVIKKCREMPDNILFIDASKEFEKVKTQNILREKHIDKIVDTYRSRKEIEKYSHCASLKEIAENDFNLNIPRYVDTFEEEEEIDIQAVMAEIKNLEAKRTDLDKQIDVYMKELGLVF | not soluble |
| MAHHHHHHMQPKMTAPLTMKDNNKCLSVRVGSTLEIHLEGNPTTGYTWTRVGFVGKEMLSDEHLEVTSKYTPKPVSGSMVGAGGSYTVFVKPLRKGQHAVQLVYARPFEGPKPDNERYTLHLNVE | soluble |
| MPPRRDLKKILIIGSGPITIGQAAEFDYSGTQAVKALRGAGYRVVLVNSNPATIMTDPELAERTYIEPLDLEHLEGILAREAPDALLPTLGGQTGLNLAMALHEEGILQKYGVELIGAKAEAIRKGEDREAFQEAMQRIGLEVPRGQLVGSVEEGLHFAREVGFPVVVRPSFTLGGTGGGIAHDEAELVEVLSRGLTLSPVHTALVEESVLGWKEFELEVMRDHADTVVIITSIENVDPMGVHTGDSITVAPAQTLSDVEYQRMRDAAKAIIREIGVETGGSNIQFAVDPKTGRQVVIEMNPRVSRSSALASKATGFPIAKIAALLAVGYRLDELPNDITRKTPASFEPTIDYVVVKIPRFAFEKFRPLRNTLGELKDELTTQMKSVGEVMAIGRTFKEALMKALRGLERDVRALAGVRTEELEKKLYPNPDRVYAVMELLRRGMPVEELYQATRIDPWFLHQMKEVVEAEEWLKTHPPKDREDWRFYKGLGLTDRRIGELVGKGEKEVRAERKALGVVPVYKTVDTCAAEFEAYTPYHYSTYELEDEVWPSQKPKVVILGSGPIRIGQGVEFDYATVHAVWALKEAGYETIMVNSNPETVSTDYDTADRLYFEPLTLEDVLNIVEHEKPIGVIATLGGQTPLKLAKGLEEAGVRLLGTPFSAIHQAEDREAFHALCQRLGIPQPEGRVAQSPEEALRLAPEVGFPLLVRPSYVLGGRAMQVVRDEGELKRYLEEVYAPLEERPSILLDRFLEGAVELDVDALSDGQEVMVAGIMEHVERAGVHSGDSATLLPPVHVPEEALKKVRDYTRRLALALGVRGLLNVQYAVVGEEVYVLEANPRASRTVPFVSKAIGVPLAKLAALIAVGKTLKELGVRDLDPVPPYYAAKEVVIPWIKFPGVIPELGPEMRSTGESMGIDQDPYLAYYKAELGAGQRLPLSGRVRFIGEGLEDLKALYQEAGFALTEGEDYDLLISLVPDPELRRAVERGLPFITTREGAWWSLKAILRARESGLRVQSLQDWHQKAPRG | soluble |
| MFGKGGLGNLMKQAQQMQEKMQKMQEEIAQLEVTGESGAGLVKVTINGAHNCRRVEIDPSLLEDDKEMLEDLVAAAFNDAARRIEETQKEKMASVSSGMQLPPGFKMPF | soluble |
| MKFDPTSPSLNIMLANPRGFCAGVDRAISIVERALELFSPPIYVRHEVVHNRYVVQNLKDRGAVFVEELDQVPDNNIVIFSAHGVSQAVRAEAKARGLRVFDATCPLVTKVHLQVTRASRKGIECILIGHAGHPEVEGTMGQYDNPNGGVYLIESPADVETLEVRDPNNLCFVTQTTLSVDDTLDIISALLKRFPSIEGPRKDDICYATQNRQDAVRNLSADVDLLIVVGSKNSSNSNRLRELALKTGTQSYLVDTADDIDSSWFENITKVAVTAGASAPEVLVQQVVQAIAKLAPSVVTEVEGRKEDTVFAVPAELR | soluble |
| MTFAGIDVSKTHLDLALVSNSPKPTRLRFPNSPEGRQALLAALAHHNPAWVALEPTSAYHLPLLKLLAENRLQVALVNPYHLAAFRKAKGERQKTDRQDALLLARYAQVYHEDLRAYTLPPETLRELKALVGYREDLAGRERTILNQMEAAEWAGSKEVLALLQKELACVKGLLGEVEARIQALLATLPEAEVLMALPGVGPQVAAAVLALLPPELWGRAKRAASYAGLIPEREESGKSVERSRLSKKGPPLLRRKLYMGALVAVRHDPEMRAFYHRLLSRGKRKKQALVAVAHKLLRRMMGRLREYYATQLDQGVA | soluble |
| GDQRFDVLITGGTLVDVVTGELRPADIGIVGALIASVHEPASRRDAAQVIDAGGAYVSPGLIDTHMHIESSMITPAAYAAAVVARGVTTIVWDPHEFGNVHGVDGVRWAAKAIENLPLRAILLAPSCVPSAPGLERGGADFDAAILADLLSWPEIGGIAEIMNMRGVIERDPRMSGIVQAGLAAEKLVCGHARGLKNADLNAFMAAGVSSDHELVSGEDLMAKLRAGLTIELRGSHDHLLPEFVAALNTLGHLPQTVTLCTDDVFPDDLLQGGGLDDVVRRLVRYGLKPEWALRAATLNAAQRLGRSDLGLIAAGRRADIVVFEDLNGFSARHVLASGRAVAEGGRMLVDIPTCDTTVLKGSMKLPLRMANDFLVKSQGAKVRLATIDRPRFTQWGETEADVKDGFVVPPEGATMISVTHRHGMAEPTTKTGFLTGWGRWNGAFATTVSHDSHNLTVFGGNAGDMALAANAVIGTGGGMAVASEGKVTAILPLPLSGLVSDAPLEEVARAFEDLREAVGKVVEWQPPYLVFKACFGATLACNIGPHQTDMGIADVLTGKVMESPVIEV | not soluble |
| MQSVELPETHQMLLQTCRDFAEKELFPIAAQVDKEHLFPAAQVKKMGGLGLLAMDVPEELGGAGLDYLAYAIAMEEISRGCASTGVIMSVNNSLYLGPILKFGSKEQKQAWVTPFTSGDKIGCFALSEPGNGSDAGAASTTARAEGDSWVLNGTKAWITNAWEASAAVVFASTDRALQNKSISAFLVPMPTPGLTLGKKEDKLGIRGSSTANLIFEDCRIPKDSILGEPGMGFKIAMQTLDMGRIGIASQALGIAQTALDCAVNYAENRMAFGAPLTKLQVIQFKLADMALALESARLLTWRAAMLKDNKKPFIKEAAMAKLAASEAATAISHQAIQILGGMGYVTEMPAERHYRDARITEIYEGTSEIQRLVIAGHLLRSYRSAENLYFQ | soluble |
| MIKNILILSSNNTGHGHKSITESLLEQFSHYPDVNVHVIDGFTLAGNFGLRIGKLYGSVTRNAKELWKLVWELSLKKPSLLNDFTEVAIKDNFLKLICNIKPDLILSVHPNFNGSVLNILEDYNIKVPFVTLLADIVSITPLWADPRADYIICPSKESKFKCLEFGVSESKLIETGFPVRQKFLKHLEKNGENNTQNIKKYTGDRPLECLIMSGGEGSGNMSRIASILLKNFNCRVKIVTGRNRLLKRRLERTIGERFGDRVEIYGFTENIQDLMLSSDIAFTRGSPNVMMEAVACNVPLIITGNLPGQEEGNPAYMQKYNLGVVCKDVRKLRHTVNELLENNGEKLNRIKQSQKEFLNPNVAKEIVSFLLSIDKQEEPCFPEDLFSGDFPRFWELHKRISMSHNKKIILKRHKKIGTKQK | soluble |
| FSGSEATAAILSRAPWSLQSVNPGLKTNSSKEPKFTKCRSPERETFSCHWTDEVHHGTKNLGPIQLFYTRRNTQEWTQEWKECPDYVSAGENSCYFNSSFTSIWIPYCIKLTSNGGTVDEKCFSVDEIVQPDPPIALNWTLLNVSLTGIHADIQVRWEAPRNADIQKGWMVLEYELQYKEVNETKWKMMDPILTTSVPVYSLKVDKEYEVRVRSKQRNSGNYGEFSEVLYVTLPQMSQ | soluble |
